# Measured values reported in a protein production outcome set (Wang et al. 2014).
# Experiment: label from the status in PepcDB records
row,Sequence,protein production
1,MAAVILESIFLKRSQQKKKTSPLNFKKRLFLLTVHKLSYYEYDFERGRRGSKKGSIDVEKITCVETVVPEKNPPPERQIPRRGEESSEMEQISIIERFPYPFQVVYDEGPLYVFSPTEELRKRWIHQLKNVIRYNSDLVQKYHPCFWIDGQYLCCSQTAKNAMGCQILENRNGSLKPGSSHRKTKKPLPPTPEEDQILKKPLPPEPAAAPVSTSELKKVVALYDYMPMNANDLQLRKGDEYFILEESNLPWWRARDKNGQEGYIPSNYVTEAEDSIEMYEWYSKHMTRSQAEQLLKQEGKEGGFIVRDSSKAGKYTVSVFAKSTGDPQGVIRHYVVCSTPQSQYYLAEKHLFSTIPELINYHQHNSAGLISRLKYPVSQQNKNAPSTAGLGYGSWEIDPKDLTFLKELGTGQFGVVKYGKWRGQYDVAIKMIKEGSMSEDEFIEEAKVMMNLSHEKLVQLYGVCTKQRPIFIITEYMANGCLLNYLREMRHRFQTQQLLEMCKDVCEAMEYLESKQFLHRDLAARNCLVNDQGVVKVSDFGLSRYVLDDEYTSSVGSKFPVRWSPPEVLMYSKFSSKSDIWAFGVLMWEIYSLGKMPYERFTNSETAEHIAQGLRLYRPHLASEKVYTIMYSCWHEKADERPTFKILLSNILDVMDEES,not failed
2,MACFSSLSTGVLDMYDLIIVGGGPSGASAGRVAGKAGISTLLIEKENFPRYKPCGGALSPYALSCLDFKLPEYLIEKDISRIRVHFRELCTEMQKDYSIALLVSRKAFDNFLLDKARETGIDIHSGEKVLDCEEGEECVEVRTSQNTYLAKFVLIAEGSEGVLKYSVRKRKDRRTEYDLALVSEIPERDKVIRKRFPNAIDMHFGIASGGYGWIFPHSEHYSVGIVGTAEHLKHPKAVMQDFLQANGFSGDFQVHSHIIPVGGIKRKTISSRILLSGDAAGFVDAFIGEGISYAIRSGQLAAENVAEIVLYNRKLSDLKEYETSCRKEFGNFLSSSLKLEKAMHRFPETSFRLALSRKEIIDKYLEEVVINRSHKDYVRWLLLNFSLSEPASKIKSIKDKNQLEHHHHHH,failed
3,MACHGFLGKPTPKSFGRHHKHARKNRNHQSRCLAAAVAAAGSIFTSLNMSIFTFHNRLLRCVSRFLRLATTSSATPTRRPTMKQGYKKLHKREPLIRRNDKKRTIFLDLDETLVHSTMEPPIRVNVDFMVRIKIEGAVIPMFVVKRPGVTEFLERISKNYRVAIFTAGLPEYASQVLDKLDKNRVISQRLYRDSCTEVNGRYAKDLSLVAKNDLGSVLLVDDNPFSYSLQPDNGVPIKPFMDDMEDQELMKLAEFFDGCYQYEDLRDAAAELLSSKLI,failed
4,MADAPDTERQAVEPEAGDVLSVSQLNDRIASVVEDAPALDGVRCIGEVTDLHQNSTALYFTLTDGDAELPCMIWANRYRKMDAELEDGTEVILEGDIDYWTEGGKIDLKPWEVIVVGDGDQAAAVERLRSELEERGWFDDEQKQRPPAFPERVGVVTSLRGDARYDIQSAIHEQDPTVDILVKDATVQGSEAPTSIANGIHHLDRSEDVDSIIVGRGGGSDSNLQAFNTERVAEAIFTANTPIVTAIGHTDDRLIADRVADMAAITPTAAGEYIAKSRNDFLASDIGPLEQQLEAAYETFEQEHEHEQELAEAVEEATAPEGLSPVYYKVAIVVLLVLLLLITALWLGVI,failed
5,MADAPIDIFQSILSRKSIRAFTDQPVTQETIREILKLAARAPSGTNLQPWQVIVLTGKILQKVGQELSQLVLSGIKGEREYHYYPRQWREPYLSRRRKVGLDLYKSLGIQKGDQEKMLHQKAKNFLFYGAPVGLLFTIDHDMEMGSWLDLGMFMQTIMLAARGFGLDTCAQAAFADYHKQIRSLLSVPSDRHIICGMALGYRDMNAPENNFETEREPIDNFVHFIKSYP,not failed
6,MADISLDELIRKRGAAAKGRLNARPGVGGVRSRVGIQQGLLSQSTRTATFQQRFDARQKIGLSDARLKLGVKDAREKLLQKDARFRIKGKVQDAREMLNSRKQQTTVPQKPRQVADAREKISLKRSSPAAFINPPIGTVTPALKLTKTIQNLYDLDEDDDGIASVPTKQMKFAASGGFLHHMAGLSSSKLSMSKALPLTKVVQNDAYTAPALPSSIRTKALPVLTSPGT,not failed
7,MADLPSISLITATYNAAQHLPGLIESVRQQSDRAFEWIVIDGASEDGTLDLIRGAQDVITDYVSEPDFGIFHALNKGIQRATGDYYLVVGADDRLDPLAIANYKQAAASSQADLISAYIYSEKKAIIKPTGGAIWHHGVQAFITTQSVGTLIKRNLHEHYGYYSHYYPTAADALFILKVQQGGGKITTAEFIAGQYNTKGFSYRYKANLLCELFLIQKEFFPKSIQLLLLIYRLIKNYRYLLEHHHHHH,failed
8,MADMSDAPLVVQSDRTILLEVDNPLYPEARDALARFAELVKSPEHIHTYRLTPLSLWNAAAGGLDAATIIQVLADYSKYPLPANVVADIREYVGRYGKVKLVARGTGLRLVTADPGIAAEISNNKRIQPYIKERQDACTLAIDPWQRGPVKQALIKIGYPVEDLAGYIPGAPLPFSLRERTLNGETFSLRPYQAEAARVFYAGGSSRGGSGVIVLPCGAGKTVVGIAAMALCQCYTLILVTSVTAARQWLAEIRDKTDLPPEMLGEYTGEKKEIKPVTVATYQIITHRRRRNEDYPNFQLFNQQDWGLIIYDEVHLLPAPIFRITAELQARRRLGLTATLIREDGHEDDVFSLIGPKKYDLPWKQLEAQGWIAKATCYEVRLNLPPEMRLDYASAGERDKYRIAATNPVKEAVVENIIKRHEGEQVLVIGQYLEQLERLARRLGVPMITGQTSNRERERLYQAFREGTLKCLVVSKVANFAIDLPEASVAVQVSGAFGSRQEEAQRLGRILRPKKGGLPASFYTLVTRETVEQEFAVHRQLFLTEQGYRYVIIGPDLEQEGDKVYPLKTPTGSEPAVGAVIKQENLDGKVIDLMAWRQKAGR,failed
9,MADNYVIWFENLRMTDVERVGGKNASLGEMISQLTEKGVRVPGGFATTAEAYRAFLAHNGLSERISAALAKLDVEDVAELARVGKEIRQWILDTPFPEQLDAEIEAAWNKMVADAGGADISVAVRSSATAEDLPDASFAGQQETFLNINGLDNVKEAMHHVFASLYNDRAISYRVHKGFEHDIVALSAGVQRMVRSDSGASGVMFTLDTESGYDQVVFVTSSYGLGENVVQGAVNPDEFYVFKPTLKAGKPAILRKTMGSKHIKMIFTDKAEAGKSVTNVDVPEEDRNRFSITDEEITELAHYALTIEKHYGRPMDIEWGRDGLDGKLYILQARPETVKSQEEGNRNLRRFAINGDKTVLCEGRAIGQKVGQGKVRLIKDASEMDSVEAGDVLVTDMTDPDWEPV,not failed
10,MADQPESPSRPRGGLRRLLPWSGADTARTATTVHTVINGERGGQGLAAHQLVPAKAKSGAHDPAAATALLIRLFSHAAHPEALLLAFAEGITSLHGELGDMGVRLSAAYAAGDWPGYGRALRQLIDKYIRTIDIGDSLAEGRTEAEQLRDLLRHALGNALATLLQRSPELAEEAQTLASALRHWRPGHELLTLEQRLRELSHQIGLRAEDASEQQNLLLGLFDLLLENVGELLDDRSWLQGQISVVRQLISGPLDVSSIEQARGTLREVIYKQGLLKQGIAESKTAMREMMVSFVDRLDGMATSTGEYHDRVAGYSQAIGEARGIPDLNRLLQDLLQDTAGVQAQALAARDELLSARRQVEDCEQRIASLEQELKDVAGLVREDQLTGALNRRGFEELFQREAVRTQRSGQPLCVAMLDLDDFRRLNETHGHAGGDAALRHTVDVAKAVLRTTDAIARFGGEEFVLLLPDSTIFEASAAVIRLQRALSQRSLLHDDVRVFISFSAGVALRGTDETQDDVIRRADRAMYDAKSAGKNRVINAD,failed
11,MADSESKIYHERQRLQFCLLHCLNNLFQDKDAFTKESLNSIAEKLETNDPNKETWTPLSFVLKPHHNTITGNYDVNVMITALEGKGKSVVWHDKRIGASSIDLDDADTLMGIVLNVPVKRYGGLWRSRHWVVVRKINGVWYNLDSDLVVPQLFRDDDEVRGFLDQNLSLDVIGLIWNLPYNANQLPLASNYRVVITHWSDLNGMFSHVTNYPLDFDVYPQVSSKVSAIYKATGTKRFNANTRPVTPGKQSSVKGPYYKNPGCTTSCGLRLPRKTECTAARLIKDLSCKFVMGLRLVVMRKKKKKRSPPLKKASSSGISQPSVISVVNDNNHRSAAIEDCIQFINSSSSFTRSNSTCGSKS,failed
12,MAEAHVTKVGIVGIGFIGSDHLHRLTKTVANVDVTAVCDIVPGKAQKALDQQGLTATTYEDYHDLVNDPNVEVVVCTANNEAHYEIVMAALKAGKFTFCEKPLALDAKQCMDIIDSEKKLGRRMLQVGFMRHYAPEYVQMKKMIDDGVIGKPLMMDQRHYNQTQPEEYDSSRSIIETAIHEIDIDHWLVNDDYANIRVFSPKQTRHVQNAKIQDPQIVMIETKSGINIINEVFVRCQYGYDIKCDVIGEEGVLELPTVPQVATRLNAQYSTAILTDWKARFESAYDIEFRDFINHVSQNESPVGPSAWDGYIAAVTADAALKSLAEDGAKQDLDFPSTPAFYTESEKVSE,failed
13,MAEANTPHIAIMPSPGMGHLIPFVELAKRLVQHDCFTVTMIISGETSPSKAQRSVLNSLPSSIASVFLPPADLSDVPSTARIETRAMLTMTRSNPALRELFGSLSTKKSLPAVLVVDMFGADAFDVAVDFHVSPYIFYASNANVLSFFLHLPKLDKTVSCEFRYLTEPLKIPGCVPITGKDFLDTVQDRNDDAYKLLLHNTKRYKEAKGILVNSFVDLESNAIKALQEPAPDKPTVYPIGPLVNTSSSNVNLEDKFGCLSWLDNQPFGSVLYISFGSGGTLTCEQFNELAIGLAESGKRFIWVIRSPSEIVSSSYFNPHSETDPFSFLPIGFLDRTKEKGLVVPSWAPQVQILAHPSTCGFLTHCGWNSTLESIVNGVPLIAWPLFAEQKMNTLLLVEDVGAALRIHAGEDGIVRREEVVRVVKALMEGEEGKAIGNKVKELKEGVVRVLGDDGLSSKSFGEVLLKWKTHQRDINQETSH,failed
14,MAEATSALRKPVFTKVNELRPGTNGHSLNVKVVNTKMVMQRGGGRPMGPQSRQMRIAECLVGDETGIIIFTARNDQVDMMKEGSVVTLRNAKIDMYKGSMRLAVDRWGRVEVAEEPTDITVKDDNNLSLIEYELVSVET,failed
15,MAEDQTVLAIDIGGSHVKIGLSTDGEERKVESGKTMTGPEMVAAVTAMAKDMTYDVIAMGYPGPVVHNKPLREPVNLGEGWVGYDYEGAFGRPVRIVNDALMQAIGSYNGGRMLFLGLGTGLGAAMIVENVAQPMEIAHLPYRKGKTYEHYVSEAYREKKGNAKWQKRVQDVVERLSAALEPDEVVIGGGNVERLENLPPKCRRGDNAMAFEGGFRLWKNADLIV,not failed
16,MAEDYKLIDNEEKHRYEFQIDDKIAKIDYIKSNNGEIYLVHTEVPASLGGRGVGSQLAEKTLADIERQGLRLVPLCPFVAGYIHKHPEWKRIVMRGIHIK,failed
17,MAEEHRCETPEGHRLCVNNCGFFGSSATMNLCSNCYGDLCLKQQQQASMKSTVESSLSPVIAPVLENYAAELEIPTTKKTEEKKPIQIPTEQPSPPQRPNRCTVCRKRVGLTGFMCRCGTTFCGSHRYPEVHGCTFDFKSAGREEIAKANPLVIAAKLQKI,failed
18,MAEEQQNSSYSIGGNILPTPEEAATFQPQVVAEGGWDKCWEDGVTPWDQGRATPLILHLLDSSALPLGRTLVPGCGGGHDVVAMASPERFVVGLDISDKALNKANETYGSSPKAEYFSFVKEDVFTWRPNELFDLIFDYVFFCAIEPEMRPAWGKSMHELLKPDGELITLMYPMTDHEGGAPYKVALSSYEDVLVPVGFKAVSVEENPDSIPTRKGKEKLARWKKIN,failed
19,MAEEVRQELSALAAIFCGPNEWEMLSCSETDGAVFRIHTTAEGLVGEDVPLELAFHLPVGYPLCLPGISVTSEHLTRAQCVTAKEKLLGEARKLVSEPMVHELVLWIQQNLRLVLSQPETVSSHEKCTLPESATGDDGPWMTLLRLDHMRARTKYVKAVEKWASELRLTGRLMFMGKLILILLQGDRSNIKEYLILQKTSKVDVDSSGKKCKEKMISVLSETKVQTEHKRFLAFEVKEYSTLEELQKEFGAAGLGELFSECVLGLVK,failed
